In patent publication US20140234351A1, “CANCER VACCINES AND VACCINATION METHODS” (ImmunoCellular Therapeutics, Ltd., priority 2013, published 2014):

Biological target: HLA-A*0201 molecules on TAP-deficient T2 cells (human)
Assay: T2 cell binding assay, fluorescence index (MFI peptide - MFI untreated)/MFI untreated
Settings: remark: other sources report otherwise

In the case of VMAGVGSPYV [HER2/neu 773-782 HLA-A2 peptide], the MFI index is reported as > 1.5.
